± gives the uncertainty stated by the source.
B1: POU domain, class 4, transcription factor 1, residues 266 to 347; numbered along this chain, Q01851 (parent)
chain: RELEAFAERFKQRRIKLGVTQADVGSALANLKIPGVGSLSQSTICRFESLTLSHNNMIALKPILQAWLEEAEGAQREKMNKP

Variants of: B1
Assay: abundance fitness (aPCA) (normalised: wild type 0, dead -1); higher = more abundant; growth selection in yeast, the domain comes from the species named
Conditions: Homo sapiens

| Variant | abundance fitness |
| --- | --- |
| I15V | -0.023 ± 0.035 |
| I15W | -0.243 ± 0.048 |
| I15G | -0.286 ± 0.055 |
| I15Y | -0.332 ± 0.046 |
| L17E | -0.804 ± 0.075 |
| L17F | -0.309 ± 0.039 |
| G35R | -0.056 ± 0.12 |
| K61C | -0.012 ± 0.057 |
| K61W | -0.07 ± 0.052 |
| K61Y | 0.007 ± 0.074 |
| K61I | 0.165 ± 0.25 |
| V19T | -0.125 ± 0.068 |
| V19S | -0.062 ± 0.062 |
| V19W | -0.016 ± 0.057 |
| V19Q | 0.11 ± 0.076 |
| E70A | -0.07 ± 0.027 |
| E70S | -0.006 ± 0.03 |
| E70D | -0.018 ± 0.037 |
| E70K | 0.004 ± 0.035 |
| E70Q | -0.015 ± 0.034 |
| E70F | -0.198 ± 0.044 |
| G73P | -0.259 ± 0.22 |
| G73K | -0.046 ± 0.073 |
| G73N | 0.003 ± 0.15 |

| Variant | abundance fitness |
| --- | --- |
| G73H | -0.068 ± 0.15 |
| G73F | -0.056 ± 0.16 |
| G73Y | 0.144 ± 0.085 |
| G73L | 0.056 ± 0.048 |
| K81D | -0.024 ± 0.11 |
| K81H | -0.432 ± 0.39 |
| K81S | -0.016 ± 0.063 |
| K81I | -0.112 ± 0.32 |
| K81C | 0.1 ± 0.15 |
| K81Y | -0.224 ± 0.12 |
| A5G | -0.039 ± 0.036 |
| A5S | -0.005 ± 0.073 |
| A5Q | 0.047 ± 0.062 |
| A5H | -0.063 ± 0.099 |
| A5K | 0.042 ± 0.087 |
| A5F | 0.042 ± 0.089 |
| R9G | -0.015 ± 0.041 |
| R9D | -0.122 ± 0.23 |
| R9L | 0.061 ± 0.05 |
| M79Y | -0.011 ± 0.052 |
| M79G | 0.009 ± 0.021 |
| G25F | -0.119 ± 0.14 |
| G25M | -0.009 ± 0.07 |
| G25C | 0.025 ± 0.066 |

| Variant | abundance fitness |
| --- | --- |
| K16D | 0.029 ± 0.049 |
| I63K | -0.137 ± 0.07 |
| I63P | -0.203 ± 0.081 |
| I63T | 0.034 ± 0.08 |
| I63Q | -0.247 ± 0.075 |
| L50C | 0.095 ± 0.046 |
| L50G | 0.049 ± 0.038 |
| L50R | 0.012 ± 0.036 |
| L50A | 0.031 ± 0.032 |
| L50I | -0.13 ± 0.043 |
| L50D | -0.425 ± 0.053 |
| L50T | -0.062 ± 0.039 |
| K11M | -0.117 ± 0.08 |
| K11A | -0.023 ± 0.056 |
| K11S | -0.104 ± 0.065 |
| D23M | -0.022 ± 0.1 |
| D23W | -0.405 ± 0.098 |
| D23N | -0.067 ± 0.14 |
| D23V | -0.152 ± 0.05 |
| D23S | -0.027 ± 0.049 |
| D23R | -0.173 ± 0.049 |
| D23T | -0.118 ± 0.066 |
| D23L | -0.281 ± 0.06 |
| R1V | -0.09 ± 0.038 |

| Variant | abundance fitness |
| --- | --- |
| R1E | 0.007 ± 0.052 |
| R1S | -0.026 ± 0.033 |
| R1I | 0.039 ± 0.067 |
| R1M | 0.004 ± 0.045 |
| R1H | -0.326 ± 0.18 |
| R1N | 0.02 ± 0.05 |
| R1Q | -0.325 ± 0.17 |
| R46H | -0.203 ± 0.17 |
| R46M | 0.128 ± 0.084 |
| R46I | -0.971 ± 0.33 |
| R46A | 0.094 ± 0.047 |
| E8A | -0.008 ± 0.063 |
| E8M | -0.069 ± 0.089 |
| E8W | -0.284 ± 0.078 |
| E8Y | -0.017 ± 0.19 |
| E8R | -0.002 ± 0.046 |
| E8G | -0.048 ± 0.045 |
| A74P | -0.05 ± 0.034 |
| A74W | -0.137 ± 0.029 |
| A74V | -0.005 ± 0.025 |
| F6T | -0.452 ± 0.037 |
| F6Q | -0.622 ± 0.047 |
| N55H | -0.06 ± 0.096 |
| N55F | -0.18 ± 0.12 |

| Variant | abundance fitness |
| --- | --- |
| P34M | -0.163 ± 0.041 |
| P34H | -0.167 ± 0.063 |
| S26Q | 0.086 ± 0.087 |
| S26K | -0.029 ± 0.062 |
| S26Y | 0.126 ± 0.1 |
| S26M | -0.049 ± 0.082 |
| L28N | -0.459 ± 0.071 |
| L28W | -0.555 ± 0.033 |
| L28D | -0.624 ± 0.065 |
| L28H | -0.332 ± 0.061 |
| E2F | -0.245 ± 0.07 |
| E2S | -0.139 ± 0.03 |
| E2Q | -0.16 ± 0.033 |
| L3F | -0.103 ± 0.065 |
| L3K | -0.564 ± 0.094 |
| L3W | -0.352 ± 0.044 |
| K78D | -0.153 ± 0.14 |
| K78R | 0.047 ± 0.051 |
| K78T | -0.273 ± 0.1 |
| S42Y | -0.185 ± 0.22 |
| S42H | -0.152 ± 0.13 |
| S42Q | -0.113 ± 0.065 |
| S42M | -0.042 ± 0.073 |
| S42N | 0.022 ± 0.082 |

| Variant | abundance fitness |
| --- | --- |
| N56Y | 0.23 ± 0.24 |
| N56A | 0.055 ± 0.046 |
| N56P | -0.301 ± 0.094 |
| E4Y | -0.153 ± 0.13 |
| E4W | -0.057 ± 0.049 |
| E4L | -0.134 ± 0.045 |
| E4C | -0.149 ± 0.079 |
| E4T | -0.031 ± 0.053 |
| E4H | 0.108 ± 0.079 |
| E4R | -0.065 ± 0.034 |
| R13Q | -0.053 ± 0.05 |
| R13F | -0.203 ± 0.066 |
| R13W | -0.321 ± 0.05 |
| Q21M | -0.111 ± 0.072 |
| Q21A | -0.044 ± 0.046 |
| N80W | -0.089 ± 0.045 |
| N80V | 0.098 ± 0.042 |
| N80K | -0.001 ± 0.065 |
| H54M | 0.044 ± 0.052 |
| V36E | -0.125 ± 0.086 |
| V36Q | -0.252 ± 0.17 |
| V36M | -0.189 ± 0.22 |
| V36R | -0.214 ± 0.062 |
| A29R | 0.083 ± 0.087 |

| Variant | abundance fitness |
| --- | --- |
| A29W | -0.605 ± 0.5 |
| A29V | 0.088 ± 0.35 |
| A22H | 0.01 ± 0.14 |
| A22T | -0.068 ± 0.1 |
| I58G | -0.147 ± 0.045 |
| I58M | -0.042 ± 0.074 |
| I58A | 0.041 ± 0.053 |
| Q75L | -0.001 ± 0.04 |
| Q75T | -0.033 ± 0.048 |
| Q75E | -0.01 ± 0.048 |
| C45P | -0.18 ± 0.075 |
| C45D | -0.139 ± 0.09 |
| C45M | 0.03 ± 0.08 |
| C45N | -0.084 ± 0.17 |
| C45F | -0.108 ± 0.097 |
| C45S | 0.079 ± 0.047 |
| A71M | -0.005 ± 0.11 |
| A71I | -0.18 ± 0.19 |
| A71E | -0.062 ± 0.054 |
| A71W | -0.186 ± 0.054 |
| P82E | -0.005 ± 0.12 |
| P82L | -0.123 ± 0.18 |
| P82W | -0.116 ± 0.14 |

Reference: the Human Domainome abundance scans (Beltran et al. 2025)
